Test: label from the status in PepcDB records

Sequence	protein production
MKKRYKNPEKSGSCGNFIQAIKMTDKVQPLESLSKKPEEPKIVVNLRRIKRKIMVMSGKGGVGKSTVAANLAVGLALRGHRVGLLDCDIHGPTVPTIFGLESARPGVSEEGILPIEVLPNLSVMSIGFLLENKDSPIIWRGPAKMGAIKQFLEEVFWGALDFLIIDLPPGTGDEPLSVAQLIPNCDGSVLVTTPQDVALISVRKSITFSEKLNVPIIGLVDNMHGLICPHCGKPIEVFGSGGVEKASKDFNIPILARLPIEPGVAEMEDRGTVVQDQLKHGTEWQKNFDNVVDAVEKILEKELEHHHHHH	not failed
MKKSLIAFILIFMLVLSGCGMKDNDKQGSNDNGSSKSPYHRIVSLMPSNTEILYELGLGKYIVGVSTVDDYPKDVKKGKKQFDALNLNKEELLKAKPDLILAHESQKATANKVLSSLEKQGIKVVYVKDAQSIDETYNTFKQIGKLTHHDKQAEQLVEETKDNIDKVIDSIPAHHKKSKVFIEVSSKPEIYTAGKHTFFNDMLEKLEAQNVYSDINGWNPVTKESIIKKNPDILISTEAKTRSDYMDIIKKRGGFNKINAVKNTRIEVVNGDEVSRPGPRIDEGLKELRDAIYRK	failed
MKKTKVHLISGFLGTGKTTALKSLMAQKDPNEKWVIIVNEFGEIGIDGAVLSDNGIPVAEIAGGCLCCTAGPQMGVTVQKMLRDAKPDRLMIEASGLAHAASVIDELKTKPLDSLLEIGAVFTVVDPRQFINPDYAQQALYKDQIGICDVLVASKTDLCTPEQLAEFHDKAAKLFPPKAKVVEVQNAQLDIQWLDIPVIEKSRYRLKALPDNTMGFQSQGFTFPAGRDFDGEKLTNFFNDLPNMTEGLVRAKGVFQVLGTWVWLNWVDGQWGANQVSWRRDSRFELIAKSFDADLIEQKLKDALELEHHHHHH	failed
MKKTLILGATPETNRYAYLAAERLKSHGHEFIPVGRKKGEVLGKTIINERPVIEGVDTVTLYINPQNQLSEYNYILSLKPKRVIFNPGTENEELEEILSENGIEPVIGCTLVMLSAGTF	not failed
MKKTLPKTEAPSSVGNGSDSPIEFDAIIRQVPDMDAAYVEIPFDVKTVYGKGRVRVNATFDGYPYTGYIVRMGLPCHILGLRQDIRRAIGKQPGDSVYVTLLPL	not failed
MKKTLSVLVISSLLFGANVQAAALNAAQEKEVRALVRDTLVSNPEILEEAIMALQTKKADEQQAQFRQALASEHDALYNDAASPRIGAKDAKLVLVSFTDYNCPYCKRFDPLLEKITEQYPDVAVIIKPLPFKGESSAKASQAVLSVWKEDPKAFLALHQRLMQKKTMLDNASIEDAMKSTNTSKIKLTDDSLKTLQNNLELSRKLGIQGTPATVIGDTILPGAVDYDQLEIIVKEQLAKVKK	failed
MKKTLVIVVHPDLTKSVINKAWAKAIEGAATIHHLYEQYPNGQIDLAHEQALLEAHDRIVFQFPLYWYAAPYLLKKWMDEVFTEGWAYGAGGDKMEGKEICAAVSCGSPKSAFAEGAQQCHTLRSYLNVFDGIAAFLRARFTGYHACYDSYNPRLPEMLPANCEAYLRFIKGE	failed
MKKTMAKSLSVIIPACNEIDTISDVIQSVKGLNPLEIIVVANGCTDGTETVAEHLGCKVLRYTEKLGNDVGRAAGAKEAIGDVLLFIDGDFAIQTSKLQLFLNPILYNQADVVLNNLDALFLKRQKPNSITVWRQILNSILEREELKIDSLLAVPHALTKEVVQSIGYECFVNPILAHLRLVQGKWRISRHCAIDVITPNKFRPTEHAAYGTDLSPSEKRMIGDHIEAVAERIVGSDERGGYCDGNRKRDSVYHTLDFEDFYQGWGVTSNLYKGKQLSVIIPVQNEEKTIGNVIEEVRKIEPFEIIVVVNGSSDQTATIAKDKGATTIVYKEALGNDVGRSLGTYFAKGEIVLFIDGDFVIPASELYPFAKAIADGTDVALNDLNHYLDLRVPLHLVTAFKYALNLACDRKDLGVGSLVAVPNAFSRKCLKQIGYRSLLAPCVAQVKAILSGFEVACVSRVEVDKMNRIRPSEHLAKIGHPPAVLRIIGDHIEGLEQLIGLTGSRGGFHDGNRKRDIL	failed
MKKTPIYVEISIQAEMERLWRYTQDPTLHRQWDLRFTDITYLKRRPGEPQRFLYETRIGFGLKISGTGESAGNVFQDTGDRVSSLKFATNHPLSVIREGRGYWKYSESETGITFMTQYDYDTRYGRLGRLADMAFRPLLGWATAWSFDALKIWLEKGLHPRLLFQKTLVYWLVCLLFSFVWIYQGLVPKLIMAHPGEISMLSAFTGGRFHPETLLRLIGLAEVMVGVLWLYPVRKRKWFLLHIVLLVLLSASAGMADIASFAEPFNPVVLNAALIILSVIGYVSACGIPNAGNTIRKRR	failed

From a protein production outcome set (Wang et al. 2014)
